Laboratory results from the DeepSol protein solubility set.

Assay: soluble on expression in E. coli; label from the status in PepcDB or PDB records

| Sequence | soluble on expression in E. coli |
| --- | --- |
| MSLNAKTVTELRSALLYMRAEDYHLWVNMGLALRELGETGRGLWMEWSATSEKFDSKDAAKKWNSFKPTGTSYQAVFAEAARHGWVNPGRSDAQLTGRRVQTQLKTSHKIKLEFAMSSDTETAKVSYLVDPFLPCKCVVGFFGRGGTAKSSFLATMAAMISQRASTLWVSAEELTDWIKARHIKTGGAPGTLQVFRGIETDEHSGQHIQVFGVYEHLDAALTMSNVAARDAGMPAVRLVVLDTAVALTIWPSGQGPNDDASVKRLLAYMQALAEKHDVTIAFIGHNNKRSSQNTEHFEDMVAGAGAWVTSPRVAFVHARDRREENSYVMRLAKPQLTPRFLVTYKTEPVHTLAQREDAPASVLCRVALGDEYIWGEDESASVFDAATGKDTEEDSGHVLEQRATTVQQVIDALVQMVHMTNAGQDVTRDMVHSALHRIVNGRRWKDVDDRLYMAQFQYRIAIVRGPNNQVLYRKMGPAEGHHHHHH | soluble |
| MPFIDIQSKVGINIDKWLLLQSSKQPYRWTTSCHAFEKEWVECSHGIGQIRAQKECKLEYEDFYECMHRNKLRQRLQAIQEQKKKLEKEGVYKAPDFTKDSNTP | not soluble |
| MGSDKIHHHHHHMNYLKLKQDVQAGRVAPVYFMYGTELFLMEDLIQDILSVTLSDEERDMNVSSYSLTDVPIEAALEEAETVPFFGSKRVVILKDAALFTSQKLDVEHDVKRLEQYILNPVPETVLLIMAPYEKLDERKKITKLIKKESLVLEAKPLDEGEAKAWLSSLASELQVEMDEKAIETLLGMTGLRLTQLASEMNKLALYVGEGGIIRSEDVTLLVAKTLDQNIFDLIDFAINQRTHQALSLYHELLKQKEEPLKLLALLTRQFRIMYQVKELGRRGYTPNQMAKPLKIHPYVAKLAGKKAASMSDQLLYSLIEKAADTEFAIKSGKVDKVLALELFLLTMGSRESVG | not soluble |
| MGSDKIHHHHHHMRSNNNNPLTRDEILSRYFPQYRPAVATSQGLSGGSCIIAHDTHRVVLRRHHDPDAPPAHFLRHYRALSQLPASLAPRALFYTPGWMAVEYLHGVVNSALPDADELAALLYHLHQQPRFGWRIALSPLLAQYWSCCDPARRTPFWLRRLKQLQKNGEPRPLRLAPLHMDVHGDNIVLTSAGLRLIDWEYAGDGDIALELAAVWVEDERQHRQLADAYAARARIDARQLWRQIRLWHPWVIMLKAGWFEYRWRQTGEQQFIRLADETWRQLRMKG | not soluble |
| MIKGTGHMIVNIANDRGMSIDSIRKTIKESVLIAYKKYFGSNENAFIKFDDDTGDLSVYAKKKIVKEVKDSLLEILEKDISKENIVEGDYAYIEINPKVFDRLSIQVAKQRTKNDLQGIEDNEILSEFKSKLNKVVIGYVQQNRNGDLYVNLGNTDGIIPKKYQSPLEHHHHHH | not soluble |
| SDPRGTKRGAEKTEVAEPRNKLPRPAPSLPTDPALYSGPFPFYRRPSELGCFSLDAQRQYHGDARALRYYSPPPTNGPGPNFDLRDGYPDRYQPRDEEVQERLDHLLCWLLEHRGRLEGGPGWLAEAIVTWRGHLTKLLTTPYERQEGWQLAASRFQGTLYLSEVETPNARAQRLARPPLLRELMYMGYKFEQYMCAGELPLLHSPLPLPRG | soluble |
| MRDVDLTAAPAKKAKLDTGERIAVSGRVASVKLTNFMCHANLQIDFKTAQNNCFYIGGPNGSGKSALFAAINLGLGGRGSDNDRGNTVKSYIKDGTTQSKITITLTNAGLNAHPDFDDLISIERTINQASSTYIMKSVKVTSSDNHVERIVSRKKADVDRIVSRFSIHLSNPAFWMSQDRSRSFLANFKPANVYKLYLESTNLENIRLSYIRFADALDECFALIQLKAGEILNEQKKLKRMQEQRDLQAKLDQDRALVASFCWKLLFCKVRDYNDQIELTLKKQEAQKTLQDETKKEYAKNRAARTEVEKKIQEFRDEVEVQDAEIAEAREDLDAKKRKVLEFEEKIRECEQSIRKKTSEKKYMERTIVNAKNEVRILLEKQGNQDLTKRLTKVENDYKDISQQRENMELGGESAKLREKLDTVITDYKRKEEEKYTIQRDINQLRRKIEQDMETMRRSRATKKDAINKFGSHMAEILMEINRSKSRFQTVPKGPLGKYITLIDPKWAFTVEECIGNLANNFLCSSHLDAEILRNIFQSLRIPAQDRPTIIVAKCNGRAYTNLHEPSSDFKSIYRVLKFSDPDVHNVIIDKSNCEQFILIEDKTEAMELMGSNYPPQNAVKAYTLDGSQAYANGPNSQYRFYSGRGGHARGTFGNDQGDVDEGALARLIEDTKSEAMRLETQDLRKQDHELKVIYNERDQTKAAIDEFDRKLSNLRSQELQKERQAKDLRAELAQTANEDQVENLNESIEEMQKKIPLIEDEVKDILKNVADITADMAPVIQERKEAEHTLAEIQKETRDFASKSQKLQNELSKYDDAGEILKIRLDKVKADEGVFFHTEAKLKSERDDAMEMVENDKKNHPMPPGETDPPDLSSFPSTTEAQRKIEEMQKAVDRATVGCDTTITLECVKDFKDKLKRLKYLCRMIEDVLIELKNLHAARVKAYPSLKKFTELKVCNKFQELLAVRGHFIGGLEFDHEKETLNVNVQSSKEKDAMAGRRPEVLEVEEVDEHSYDDDSDDSTGPRRKKSKKSGQKKKRVRDLKGLSGGERSFVTAALVMSLWEVMEQPFRMMDEFDVFMDMMNRKLVMDLLVELATKKFPHNQFIFFTPQGIKELNMVDGLQVFEMNRVRD | not soluble |
| MCAKATMEEFEALLNESLQIDTPQEGSVVKGKVIAVEAGQAIIDVGYKMEGRVDLKEFADMSGSVDISVGDEVEVYLDRVENARGEAVISRDKAKREEAWDRLEKAYANETRVEGAIFGRVKGGFTVDLGGAVAFLPGSQVDVRPVRDAGPLMGMKQPFQILKMDRRRGNIVVSRRAILEESRAEQRAEVISNLFEGQTVDGVVKNITEYGAFVDLGGVDGLLHVTDMAWRRVNHPSEILSIGETVKVQVIKINKETHRISLGMKQLQSDPWDAVEKAYPIGSVHKGRVTNITDYGAFVELEAGVEGLVHVSEMSWTKKNVHPGKIVSTSQEVDVMVLEIDSAKRRVSLGLKQTMRNPWEVFAETHPVGTPIEGEVKNITEFGLFVGLEHDIDGMVHLSDLSWDQRGEEAIQNYRKGDVVKAVVTEVDTDKERISLSIKALGDDTFSEAIEGVKRGSVITVTVTAIEDGGIEVEYNSMKSFIRRSDLSRDRADQRPERFQVGDKVDVRVTNVDAKTRRLGLSIKAREIAEEKEAVEQYGSSDSGASLGDILGAALRNSDRGLEHHHHHH | soluble |
| MVQEIIVDSGDIEFLTTPKEYKQQLLSLIECARQRIFITALYLQDDEAGREILHALYQAKANFPTIEINIFVDFNRGQRGLIGEKASLGNRALYLKLAHEYPHTVNIYGVAVKRKEVFGVLHLKGMVFDEKLFYTGASINDIYLHQGERYRLDRYCTINSAALADSFCHYLSDTFIDSGLAPLLNQEWLPDAVEQKKNLIALKLQLKKSHYIVAQQQGLSQSKIVSNKALITPLVGFGRRKNQLNRATRHLVQKADDNMVLFTPYFNLPHSLAKDVIRALKRGVKTTVVVGDKTANDFFIGNDEDFSTIGIIPYVYEMLLKRFVKRYQNFIDQGLLNIHLWKDKDNSFHLKGLRVDDRYHLITGSNLNPRAWALDLENGLVVDDVNKQLLQKTDEELLGILVNTSKVSHFSDIDSVEDYPEKPQKLLKKIRVAQIDRVLKRFLLEHHHHHH | soluble |
| MSLNEAGIVLLPKSRQLPALSMIDQNGAAVALDGLKDQWTLMFFGYTFCPDICPTTLAQIKQIRSELPTAAVERMRVVLVSVDPNRDTPQQLKEYLSYFDPQYIGLTAPVADIQKLANSVSIPFIPADTSKPNYFVDHSGNLALIGPDGTQRGFIRAPLNNQKLVKQLPRLLERDEGHHHHHH | soluble |
| MAHHHHHHMKKKGCHSDRKHCQKHVQAELCLFILHSVLRKCPNKMVHSILQNSHGNIRKKFEISLKHETSTPAPQKRRREVLLKRKTNSKRGNRA | not soluble |
| MAHHHHHHMRTFSRTARITSSAACVGRFEHQGVSRDAVLARWSLQVVKPNAMKTGGLIGKGMKFASPLGPSGWATRNSGTGSTVLDVNWDLRERMDYYVHYSVPSTWTVVEHVSDNSVAIQSKPPVCDSPGAEGPTVHGFSLNCFAYKQKVKEPDCEKLLSLFLHRFDASVSNSLAVLSKASGRGNGVICGTAKPEQDISEVLANRLECAVAEITFTPAVGEPLAHGLCRAFYNSNRRFHYVVVVAVPEDEFTLSKDLLTHALLAVVESRVEAAPKGT | soluble |
| LEQLSMNLLDGALRIEHFALPQTKVAYLHLSQINFEQILALLKYQQIELKGRANATFPFWIEGKPCYVCNGSMAQAVSSRLKIAPELMQAISQSNGYSERLLAYLLHDTRITDLTSKVNINSEGEMALQAKLNMQLNQQAQTKINFNYHHQENVFKLWRTLNAGTYVEQNFENSIYQKLDRTNE | not soluble |
